Among the data in PMC8102920 are binding signal (% RNA shifted and Kd values, retold here.

The test system of the data set is eIF3 complex (purified, 13 subunits a-m) (rabbit (reticulocyte lysate)). Kind of data set: EMSA. To be noted: EMSA: 25 mM Tris-HCl pH 7.5, 5 mM Mg(OAc)2, 70 mM KCl, 0.1 mM CaCl2, 0.1 mg/ml BSA, 2 mM TCEP, 30 min at 25 C, 0.7% agarose in TBE, 75 mM KCl, 4 C; for binding signal (% RNA shifted at high eIF3): high eIF3 (4-8 uM lanes quantified). On the technique in general: A gel shift assay detects complexes by their altered migration in electrophoresis.

H4 1-137 (TWJ): the binding signal (% RNA shifted at high eIF3) stood at 28. Consider H4 137-241 (4E-SE), for which the binding signal (% RNA shifted at high eIF3) was 14.

Consider H4 241-375 (eIF3-BS), for which the binding signal (% RNA shifted at high eIF3) worked out at 39.

Broadly, the Kd is the constant that tells how readily two partners part at equilibrium. Read a high Kd as lower affinity. For H4 FL mRNA (1-375), the Kd came to 4 µM.
